Test results published in PMC6614362.

Assays:
[1] = molecular target: RsbS (Listeria monocytogenes stressosome component) (L. monocytogenes); assay: cryo-EM structure; stressosome assembled from purified RsbR, RsbS and RsbT with 1 mM ADP; 20 µg/ml on Quantifoil grids; maps at 4.48 Å (no symmetry) and 3.38 Å (icosahedral symmetry, turrets masked out)
[2] = molecular target: RsbR:RsbS complex (preformed, purified by gel filtration) (L. monocytogenes); assay: SEC; purified RsbR and RsbS mixed, complex taken from Superose 6 void volume, combined with excess RsbT (4 °C, 4 h), Superose 6 in 20 mM Tris HCl pH 8.5, 150 mM NaCl, 1 mM ADP, 1 mM DTT; fractions analysed by SDS-PAGE
[3] = molecular target: RsbR (Listeria monocytogenes stressosome component) (L. monocytogenes); assay: cryo-EM structure; stressosome assembled from purified RsbR, RsbS and RsbT with 1 mM ADP; 20 µg/ml on Quantifoil grids; maps at 4.48 Å (no symmetry) and 3.38 Å (icosahedral symmetry, turrets masked out)
[4] = molecular target: RsbS (Listeria monocytogenes stressosome component) (L. monocytogenes); assay: SEC; purified RsbR and RsbS mixed, complex taken from Superose 6 void volume, combined with excess RsbT (4 °C, 4 h), Superose 6 in 20 mM Tris HCl pH 8.5, 150 mM NaCl, 1 mM ADP, 1 mM DTT; fractions analysed by SDS-PAGE

RsbS (Listeria monocytogenes stressosome component) (natural protein)
stoichiometry N [1]: 2

RsbT (Listeria monocytogenes stressosome kinase) (enzyme)
stoichiometry N (RsbT per RsbS (RsbR:RsbS:RsbT 2:1:1)) [2]: 1

RsbR (Listeria monocytogenes stressosome component) (natural protein)
stoichiometry N [3]: 2 | stoichiometry N (RsbR per RsbS) [4]: 2
